These results are taken from paper PMC4534855 (2015).

First the molecules themselves.
B1: Flag-eIF2β, wild type [S. cerevisiae] / eIF2γ in yeast whole-cell extracts [yeast (endogenous in yeast whole-cell extracts)] (parent complex)
chain 1: MSSDLAAELGFDPALKKKKKTKKVIPDDFDAAVNGKENGSGDDLFAGLKKKKKKSKSVSADAEAEKEPTDDIAEALGELSLKKKKKKTKDSSVDAFEKELAKAGLDNVDAESKEGTPSANSSIQQEVGLPYSELLSRFFNILRTNNPELAGDRSGPKFRIPPPVCLRDGKKTIFSNIQDIAEKLHRSPEHLIQYLFAELGTSGSVDGQKRLVIKGKFQSKQMENVLRRYILEYVTCKTCKSINTELKREQSNRLFFMVCKSCGSTRSVSSIKTGFQATVGKRRRM
chain 2: MSDLQDQEPSIIINGNLEPVGEPDIVEETEVVAQETQETQDADKPKKKVAFTGLEEDGETEEEKRKREFEEGGGLPEQPLNPDFSKLNPLSAEIINRQATINIGTIGHVAHGKSTVVRAISGVQTVRFKDELERNITIKLGYANAKIYKCQEPTCPEPDCYRSFKSDKEISPKCQRPGCPGRYKLVRHVSFVDCPGHDILMSTMLSGAAVMDAALLLIAGNESCPQPQTSEHLAAIEIMKLKHVIILQNKVDLMREESALEHQKSILKFIRGTIADGAPIVPISAQLKYNIDAVNEFIVKTIPVPPRDFMISPRLIVIRSFDVNKPGAEIEDLKGGVAGGSILNGVFKLGDEIEIRPGIVTKDDKGKIQCKPIFSNIVSLFAEQNDLKFAVPGGLIGVGTKVDPTLCRADRLVGQVVGAKGHLPNIYTDIEINYFLLRRLLGVKTDGQKQAKVRKLEPNEVLMVNIGSTATGARVVAVKADMARLQLTSPACTEINEKIALSRRIEKHWRLIGWATIKKGTTLEPIA

Variants of B1 are the subject of this test. Put plainly: co-immunoprecipitation with FLAG affinity resin, quantified western; yeast whole-cell extracts; three biological replicates; read off a plot.
With chain 1 S202A, chain 1 K214A, the response is ~0.89 eIF2γ:eIF2β. With chain 1 F217A, chain 1 Q221A the figure was ~0.82 eIF2γ:eIF2β.
